# Data as given in patent US20230212305A1, “ANTI-ABCG2 ANTIBODIES AND USES THEREOF” (Kenjockety Biotechnology, Inc., priority 2020, published 2023).
# Entries after “also recorded” stand apart in the source; their conditions may differ.
# T1: ABCG2 (Homo sapiens, UniProt Q9UNQ0)
# T1 construct: expressed in transfected cells
# T1 sequence (Q9UNQ0 1-655): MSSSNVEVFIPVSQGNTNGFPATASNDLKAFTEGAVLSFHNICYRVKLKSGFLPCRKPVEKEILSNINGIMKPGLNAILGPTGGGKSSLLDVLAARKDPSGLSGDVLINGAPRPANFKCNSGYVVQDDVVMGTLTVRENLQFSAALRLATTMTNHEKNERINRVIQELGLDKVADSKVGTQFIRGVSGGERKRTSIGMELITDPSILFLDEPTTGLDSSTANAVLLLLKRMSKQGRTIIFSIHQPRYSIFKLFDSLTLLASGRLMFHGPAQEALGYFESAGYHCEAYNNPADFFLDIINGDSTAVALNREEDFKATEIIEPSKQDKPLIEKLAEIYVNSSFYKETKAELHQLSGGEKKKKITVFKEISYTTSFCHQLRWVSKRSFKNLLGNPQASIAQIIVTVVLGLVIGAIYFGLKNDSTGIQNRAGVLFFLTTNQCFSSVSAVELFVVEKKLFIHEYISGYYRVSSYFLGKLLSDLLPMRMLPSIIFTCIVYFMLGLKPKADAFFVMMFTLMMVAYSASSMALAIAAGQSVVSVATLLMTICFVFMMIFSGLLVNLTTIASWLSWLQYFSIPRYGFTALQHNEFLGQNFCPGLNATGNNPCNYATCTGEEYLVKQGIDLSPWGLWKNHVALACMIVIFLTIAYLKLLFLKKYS
# B1: G2.65 mouse: anti-ABCG2 antibody raised in mouse, listed in Table 2 (antibody, V domains shown)
# VH: QGQMHQSGAELVKPGASVKLSCKTSGFTFNSGYISWLKQKPRQSLEWIAWIYAGTGISNFNQKFTGKAQLTVDTSSSTAYMQLSSLTSADSAIYFCASGARKTLDFWGQGTSVTVSS
# VL: DIQMTQSSSYLSVSVGGRVTITCKASDQINYWLAWYQQKPGNAPRLLISGATSLETGVPSRFSGSGSGKDYTLSITSFQTEDVATYYCQQYWTTPYTFGGGTKVEIK
# B2: G2.631 rat: anti-ABCG2 antibody raised in rat (antibody, V domains shown)
# VH: EVKLLESGGGLVQSGRSLKLSCAASGFIFSRFYMAWVRQAPRKGLEWVAYISNGAGSTYYRESVKGRFIISRDNAKSTLYLQMDSLRSEDTATYYCTTVAAPWNYVMDGWGQGASVTVSS
# VL: NIQITQSPSLLSASVGDRVTLSCKGSQNINNYLAWYQQKLGEAPKLLIYKTNSLHTGIPSRFSGSGSGTDYTLTISSLHSEDLATYYCYQYNNGYTFGAGTKLELK
# B3: G2.343 rat: anti-ABCG2 antibody raised in rat (antibody, V domains shown)
# VH: SVQLKESGPGLVQPSQTLSLTCTVSGFSLTSNGVSWVRQPPGKGLEWIAAISSGGSTYYNSVLKSRLSISRDTSKSQVFLKMNSLQTEDTAIYFCTRDTYYGYNQIPFVYWGQGTLVTVSS
# VL: DVVLAQTPPTLSATIGQSVSISCRSSQSLLHSSGNTYLNWLLQRPGQPPQLLIYLVSRLESRVPNRFSGSGSGTDFTLKISGVEAEDLGVYYCVQSTHAPRTFGGGTKLELK
# B4: G2.333 rat: anti-ABCG2 antibody raised in rat (antibody, V domains shown)
# VH: EIQLQESGPGLVKPSQSLSLTCSVTGYTITSGYDWTWLRKFPGNKMEWMGYISYSGFTNYNPSLRSRISISRDTSKNQFFLQLNSVTTEDTATYYCARTRGYNPFPYWGQGTLVTVSS
# VL: DIQMTQSPSLLSASVGDRVSLSCKAGRNVNNYLAWYQQKLGKPPKLLIYNSNSLQTGIPSRFSGSGSGTDFTLTISSLQPEDVATYFCQQYNSWTTFGSGTKLEIK
# B5: G2.302 mouse: anti-ABCG2 antibody raised in mouse, listed in Table 2 (antibody, V domains shown)
# VH: QIQLQQSGPELVRPGASVKISCKASGYTFTDYYINWVKQRPGQGLEWIGWIYPGNVNVKYNEKFKGKATLTVDTSSSTGYMQLRSLTSEDSAVYFCARSIGLRYFDNWGQGTTLTVSS
# VL: EKVLTQSPAIMSASLGEKVTMSCRASSSVHYMYWHQQKSDASPRLWIYYTSNLAPGVPARFSGSGSGNFYSLTISSVEDEDGATYYCQQFTTSTWTFGGGTKLEIK
# Assays:
# ABCG2 [1] = target: T1, ABCG2; assay: Flow cytometry binding to 293T cells overexpressing human ABCG2 (293T_ABCG2_OX); set-up: key to Binding by FACS: binding=“+”; non-significant binding=“−”; details: for binding to 293 cells overexpressing human ABCG2 (hG2): FACS, FIG. 1
# Method in brief: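 Antibodies serially diluted (from 100 ug/mL or about 666 nM) and incubated 30 min on ice with 293T cells stably expressing human or cynomolgus ABCG2, in PBS/2% FBS/0.02% azide. Bound antibody detected by PE anti-human IgG F(ab′)2, 20 min on ice, flow cytometry; EC50 = concentration giving half-maximal signal.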
# cynomolgus ABCG2 = assay: Flow cytometry binding to 293T cells overexpressing cynomolgus ABCG2; set-up: key to Cynomolgus ABCG2 binding: binding=“+”; non-significant binding=“−”; details: for binding to 293 cells overexpressing cynomolgus ABCG2 (cG2): FACS, FIG. 1
# Chain of cynomolgus ABCG2 (as listed by the source): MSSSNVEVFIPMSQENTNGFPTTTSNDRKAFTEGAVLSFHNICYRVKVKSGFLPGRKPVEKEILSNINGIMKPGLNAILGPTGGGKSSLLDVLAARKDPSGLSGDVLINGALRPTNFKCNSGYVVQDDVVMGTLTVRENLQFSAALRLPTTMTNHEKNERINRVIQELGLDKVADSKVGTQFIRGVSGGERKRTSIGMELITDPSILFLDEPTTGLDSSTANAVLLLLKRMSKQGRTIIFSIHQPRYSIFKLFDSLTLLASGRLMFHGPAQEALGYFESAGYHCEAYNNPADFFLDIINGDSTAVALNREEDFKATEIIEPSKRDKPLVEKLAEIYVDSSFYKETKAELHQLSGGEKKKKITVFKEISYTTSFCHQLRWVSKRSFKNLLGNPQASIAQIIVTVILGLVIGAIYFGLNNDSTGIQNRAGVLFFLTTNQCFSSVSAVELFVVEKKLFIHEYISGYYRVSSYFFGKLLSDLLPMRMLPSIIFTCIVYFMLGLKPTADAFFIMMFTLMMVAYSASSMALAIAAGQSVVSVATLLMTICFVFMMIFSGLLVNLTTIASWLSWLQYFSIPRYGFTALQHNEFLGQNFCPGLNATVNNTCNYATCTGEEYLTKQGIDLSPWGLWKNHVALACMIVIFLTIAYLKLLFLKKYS
# Method in brief: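 293T cells stably overexpressing cynomolgus ABCG2 were incubated on ice for 30 min with antibody at 5 ug/mL or serial dilutions from 100 ug/mL. Bound antibody detected with PE-labelled anti-human IgG F(ab′)2 by flow cytometry; EC50 taken as concentration giving half-maximal response.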
# ABCG2 [2] = target: T1, ABCG2; format: cell-based
# Method in brief: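 293T cells overexpressing ABCG2 (2×10e6 cells/ml, phenol red-free DMEM) treated with antibodies or inhibitors at 1 μM final, then loaded with 2.5 μM mitoxantrone 1 h at 37° C. After washing, mitoxantrone retention read as fluorescence (ex 635, em 647 nm) to measure efflux blockade.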
# 293T_ABCG2_OX cells = format: cell-based, human; details: for Killing: cell killing by topotecan on 293T_ABCG2_OX cells, viability relative to IgG control
# Protocol: Cytotoxicity Assays. The effect of antibodies on topotecan cytotoxicity was evaluated on 293T_ABCG2_OX cells, 293T cells stably transfected to express ABCG2. Cells were plated in 0.05 mL of Assay Media (DMEM+10% FBS) at 5000 cells/well in white, flat bottom 96-well tissue culture plates. Topotecan was prepared at 2× final assay concentration by serial dilution from 200 uM in assay media containing test antibodies or control antibodies at 100 ug/mL (2× final concentration), or Fumitremorgin C, a small molecule ABCG2 inhibitor at 20 uM (2× final concentration). An equivalent volume (0.05 mL) of the topotecan/antibody mixture was added to the 293T_ABCG2_OX cells in 96-well plates. The plates were then incubated at 37° C., in 5% CO2. After 72-96 hr plates were equilibrated to room temperature and cell viability assessed using Promega® CellTiter-Glo® Luminescent Cell Viability Assay according to the manufacturer's recommended protocol. Luminescence was measured on a Molecular Devices® FlexStation® 3 Multi-Mode Microplate Reader and data analyzed using GraphPad Prism 8.0 software. Half maximal inhibitory concentration (1050) is the concentration of drug (topotecan or other chemotherapy cytotoxic agent) where the response (cell growth) is reduced by 50%.
# HEK 293 naïve cells = assay: FACS binding to HEK 293 naïve cells; set-up: species or system human; details: FIG. 1
# A549 (ATCC, CCL-185) = assay: Xenograft study with NSCLC cell line A549; format: in vivo
# Panc1/T300 cells = assay: Xenograft study with topotecan-resistant Panc1/T300 cells; format: in vivo
# Protocol: PANC1 (ATCC, CRL-1469) is a pancreatic ductal epithelial carcinoma cell line. The topotectan-resistant Panc1/T300 cells were developed by continuously incubating PANC1 cells in the culture medium containing increasing concentration of topotecan of 25, 50, 100, 200 and 300 nM. […] The arrows indicate the dosing schedule.
Molecule,Binding by FACS (ABCG2 [1]; 293T_ABCG2_OX cells),binding to 293 cells overexpressing human ABCG2 (hG2) (ABCG2 [1]),Cynomolgus ABCG2 binding (cynomolgus ABCG2),binding to 293 cells overexpressing cynomolgus ABCG2 (cG2) (cynomolgus ABCG2),Block Efflux (ABCG2 [2]),Killing (293T_ABCG2_OX cells),binding to 293 naïve cells (HEK 293 naïve cells),"binding to 293T cells overexpressing human ABCG2 (ABCG2 [1]; in words, FIGS. 7-11, 21)","binding to 293T cells overexpressing cynomolgus ABCG2 (cynomolgus ABCG2; in words, FIGS. 7-11, 21)",efflux inhibition activity (ABCG2 [2]),effect on topotecan cytotoxicity on 293T_ABCG2_OX cells (293T_ABCG2_OX cells),"tumor volume, in combination with topotecan (A549 (ATCC, CCL-185))","tumor volume, in combination with topotecan (Panc1/T300 cells)","Kd (ABCG2 [1]; 293T_ABCG2_OX cells, read-out: Affinity for human ABCG2)","efficacy in combination with CPT11 (Irinotecan) (A549 (ATCC, CCL-185); compared with 5D3/CPT11 combination)"
B1,+,binds,−,does not significantly bind,−,− (≥75% of IgG control),does not significantly bind,,,,,,,,
B2,+,,,,+,++ (viability ≥10% and <30% of IgG control),,strong binding,strong binding,strong efflux inhibition activity,significantly increased the cytotoxic activity of topotecan,efficacious in reducing tumor volume,,,
B3,+,,+,,+,,,,,,,efficacious in reducing tumor volume; also recorded: particularly efficacious,efficacious in reducing tumor volume,,
B4,+,,+,,+,+ (viability ≥30% and <50% of IgG control),,,,strong efflux inhibition activity,,,,33 nM,significantly exceeds the efficacy of the 5D3/CPT11 combination
B5,+,binds,+,binds,−,− (≥75% of IgG control),does not significantly bind,,,,,,,,
